Blank lines part the entries; values can stand above or below the binder they belong to.
Experiments:
[1] = molecular target: T1, p300 (UniProt Q09472 2-2414, limits assumed); assay: in vitro binding assay with purified proteins
T1 construct: The shRNAs used in Kasumi-1 cells are against human p300

[2] = molecular target: T1, p300; assay: anti-Flag co-IP from 293T cells, Western blot for p300
Method: (§1) After 36 hours the cells were lysed in RIPA buffer with 1 mM DTT and DNAse I 1 μg/mL and a proteinase inhibitor cocktail (Roche), and incubated on ice for 30 minutes. Nuclear extracts were prepared to examine the endogenous protein-protein interactions. Anti-Flag agarose (Sigma), anti-HA agarose (Pierce) or protein A/G agarose (Santa Cruz) was used in the immunoprecipitation assays. For western blot assays, protein samples were separated by electrophoresis on denaturing 3-8% or 4-12% premade polyacrylamide gels (Invitrogen) and blotted to PVDF membranes (Millipore).

[3] = molecular target: T1, p300; assay: anti-HA co-IP, Western blot for p300
Method: as §1

T1 sequence (Q09472 2-2414 limits assumed): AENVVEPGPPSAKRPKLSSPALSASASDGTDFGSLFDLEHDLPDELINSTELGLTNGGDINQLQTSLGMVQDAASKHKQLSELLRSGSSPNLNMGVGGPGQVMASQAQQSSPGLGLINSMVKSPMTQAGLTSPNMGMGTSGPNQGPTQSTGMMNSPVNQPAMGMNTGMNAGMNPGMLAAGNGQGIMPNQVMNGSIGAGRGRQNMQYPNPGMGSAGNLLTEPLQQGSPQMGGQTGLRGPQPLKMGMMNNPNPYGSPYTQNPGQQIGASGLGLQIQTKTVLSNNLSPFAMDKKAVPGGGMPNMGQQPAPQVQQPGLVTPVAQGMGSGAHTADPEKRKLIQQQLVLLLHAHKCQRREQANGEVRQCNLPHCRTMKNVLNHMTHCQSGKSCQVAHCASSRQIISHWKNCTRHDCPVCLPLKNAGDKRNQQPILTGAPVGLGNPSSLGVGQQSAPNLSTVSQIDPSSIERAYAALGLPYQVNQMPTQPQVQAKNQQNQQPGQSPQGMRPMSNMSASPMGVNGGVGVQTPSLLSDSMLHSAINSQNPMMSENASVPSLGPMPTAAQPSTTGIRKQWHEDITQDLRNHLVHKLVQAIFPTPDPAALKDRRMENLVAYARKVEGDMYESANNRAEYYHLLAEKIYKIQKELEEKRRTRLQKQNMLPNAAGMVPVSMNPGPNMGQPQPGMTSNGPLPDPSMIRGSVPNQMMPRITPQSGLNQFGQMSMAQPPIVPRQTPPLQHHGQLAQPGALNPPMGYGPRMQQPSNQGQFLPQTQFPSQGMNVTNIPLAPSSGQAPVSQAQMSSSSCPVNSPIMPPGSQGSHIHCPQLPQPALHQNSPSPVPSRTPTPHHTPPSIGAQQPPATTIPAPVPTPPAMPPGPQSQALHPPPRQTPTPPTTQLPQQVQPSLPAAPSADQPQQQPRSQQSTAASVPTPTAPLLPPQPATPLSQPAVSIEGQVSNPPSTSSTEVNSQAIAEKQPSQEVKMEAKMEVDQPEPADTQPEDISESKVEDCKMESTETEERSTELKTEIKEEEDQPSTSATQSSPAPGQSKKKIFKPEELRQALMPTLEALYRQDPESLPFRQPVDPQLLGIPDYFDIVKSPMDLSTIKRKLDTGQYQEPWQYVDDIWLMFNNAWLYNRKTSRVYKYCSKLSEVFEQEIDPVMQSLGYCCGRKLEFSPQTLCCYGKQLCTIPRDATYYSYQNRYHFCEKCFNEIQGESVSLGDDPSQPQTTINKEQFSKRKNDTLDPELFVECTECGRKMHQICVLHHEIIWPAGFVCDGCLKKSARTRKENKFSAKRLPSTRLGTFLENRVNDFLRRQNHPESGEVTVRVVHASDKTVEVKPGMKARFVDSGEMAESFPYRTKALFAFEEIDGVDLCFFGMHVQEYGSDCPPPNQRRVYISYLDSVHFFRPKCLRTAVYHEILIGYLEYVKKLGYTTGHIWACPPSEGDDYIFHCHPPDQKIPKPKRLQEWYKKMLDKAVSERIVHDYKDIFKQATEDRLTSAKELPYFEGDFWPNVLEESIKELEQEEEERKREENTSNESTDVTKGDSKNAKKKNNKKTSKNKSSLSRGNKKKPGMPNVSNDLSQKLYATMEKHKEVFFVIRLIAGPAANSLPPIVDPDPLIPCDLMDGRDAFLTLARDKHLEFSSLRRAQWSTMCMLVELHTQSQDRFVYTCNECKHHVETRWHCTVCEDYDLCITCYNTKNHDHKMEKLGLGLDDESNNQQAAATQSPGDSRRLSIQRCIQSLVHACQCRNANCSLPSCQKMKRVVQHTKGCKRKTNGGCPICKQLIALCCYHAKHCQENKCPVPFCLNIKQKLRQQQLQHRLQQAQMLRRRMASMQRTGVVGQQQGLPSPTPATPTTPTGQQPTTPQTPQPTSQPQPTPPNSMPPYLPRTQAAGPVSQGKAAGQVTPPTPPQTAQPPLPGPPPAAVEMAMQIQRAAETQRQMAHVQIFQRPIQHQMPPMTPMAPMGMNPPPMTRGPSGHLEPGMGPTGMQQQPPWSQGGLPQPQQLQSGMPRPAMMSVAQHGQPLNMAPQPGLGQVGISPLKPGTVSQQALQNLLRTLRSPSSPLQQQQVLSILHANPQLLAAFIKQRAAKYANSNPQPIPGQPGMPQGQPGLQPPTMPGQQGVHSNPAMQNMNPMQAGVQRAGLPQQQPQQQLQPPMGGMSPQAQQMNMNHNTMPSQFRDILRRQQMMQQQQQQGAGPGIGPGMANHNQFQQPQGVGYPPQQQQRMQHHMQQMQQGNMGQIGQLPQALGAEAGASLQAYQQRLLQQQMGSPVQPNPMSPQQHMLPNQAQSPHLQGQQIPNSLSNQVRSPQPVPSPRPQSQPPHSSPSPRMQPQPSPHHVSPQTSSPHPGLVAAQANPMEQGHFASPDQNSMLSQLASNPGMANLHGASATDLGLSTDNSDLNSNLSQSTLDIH

B1: AML1-ETO fusion protein (other)
chain: MRIPVDASTSRRFTPPSTALSPGKMSEALPLGAPDAGAALAGKLRSGDRSMVEVLADHPGELVRTDSPNFLCSVLPTHWRCNKTLPIAFKVVALGDVPDGTLVTVMAGNDENYSAELRNATAAMKNQVARFNDLRFVGRSGRGKSFTLTITVFTNPPQVATYHRAIKITVDGPREPRNRTEKHSTMPDSPVDVKTQSRLTPPTMPPPPTTQGAPRTSSFTPTTLTNGTSHSPTALNGAPSPPNGFSNGPSSSSSSSLANQQLPPACGARQLSKLKRFLTTLQQFGNDISPEIGERVRTLVLGLVNSTLTIEEFHSKLQEATNFPLRPFVIPFLKANLPLLQRELLHCARLAKQNPAQYLAQHEQLLLDASTTSPVDSSELLLDVNENGKRRTPDRTKENGFDREPLHSEHPSKRPCTISPGQRYSPNNGLSYQPNGLPHPTPPPPQHYRLDDMAIAHHYRDSYRHPSHRDLRDRNRPMGLHGTRQEEMIDHRLTDREWAEEWKHLDHLLNCIMDMVEKTRRSLTVLRRCQEADREELNYWIRRYSDAEDLKKGGGSSSSHSRQQSPVNPDPVALDAHREFLHRPASGYVPEEIWKKAEEAVNEVKRQAMTELQKAVSEAERKAHDMITTERAKMERTVAEAKRQAAEDALAVINQQEDSSESCWNCGRKASETCSGCNTARYCGSFCQHKDWEKHHHICGQTLQAQQQGDTPAVSSSVTPNSGAGSPMDTPPAATPRSTTPGTPSTIETTPR
notes: also called A-E; AE
binding result [1]: binds

B2: Flag-AE (Flag-tagged AML1-ETO) (other)
chain: MRIPVDASTSRRFTPPSTALSPGKMSEALPLGAPDAGAALAGKLRSGDRSMVEVLADHPGELVRTDSPNFLCSVLPTHWRCNKTLPIAFKVVALGDVPDGTLVTVMAGNDENYSAELRNATAAMKNQVARFNDLRFVGRSGRGKSFTLTITVFTNPPQVATYHRAIKITVDGPREPRNRTEKHSTMPDSPVDVKTQSRLTPPTMPPPPTTQGAPRTSSFTPTTLTNGTSHSPTALNGAPSPPNGFSNGPSSSSSSSLANQQLPPACGARQLSKLKRFLTTLQQFGNDISPEIGERVRTLVLGLVNSTLTIEEFHSKLQEATNFPLRPFVIPFLKANLPLLQRELLHCARLAKQNPAQYLAQHEQLLLDASTTSPVDSSELLLDVNENGKRRTPDRTKENGFDREPLHSEHPSKRPCTISPGQRYSPNNGLSYQPNGLPHPTPPPPQHYRLDDMAIAHHYRDSYRHPSHRDLRDRNRPMGLHGTRQEEMIDHRLTDREWAEEWKHLDHLLNCIMDMVEKTRRSLTVLRRCQEADREELNYWIRRYSDAEDLKKGGGSSSSHSRQQSPVNPDPVALDAHREFLHRPASGYVPEEIWKKAEEAVNEVKRQAMTELQKAVSEAERKAHDMITTERAKMERTVAEAKRQAAEDALAVINQQEDSSESCWNCGRKASETCSGCNTARYCGSFCQHKDWEKHHHICGQTLQAQQQGDTPAVSSSVTPNSGAGSPMDTPPAATPRSTTPGTPSTIETTPR
notes: Expressed in 293T cells with BosNeo-p300; anti-Flag IP; not shown: Flag tag added at the 5' end of the construct (N-terminus)
binding result [2]: binds

B3: Flag-AE-ΔNHR2 (other)
chain: MRIPVDASTSRRFTPPSTALSPGKMSEALPLGAPDAGAALAGKLRSGDRSMVEVLADHPGELVRTDSPNFLCSVLPTHWRCNKTLPIAFKVVALGDVPDGTLVTVMAGNDENYSAELRNATAAMKNQVARFNDLRFVGRSGRGKSFTLTITVFTNPPQVATYHRAIKITVDGPREPRNRTEKHSTMPDSPVDVKTQSRLTPPTMPPPPTTQGAPRTSSFTPTTLTNGTSHSPTALNGAPSPPNGFSNGPSSSSSSSLANQQLPPACGARQLSKLKRFLTTLQQFGNDISPEIGERVRTLVLGLVNSTLTIEEFHSKLQEATNFPLRPFVIPFLKANLPLLQRELLHCARLAKQNPAQYLAQHEQLLLDASTTSPVDSSELLLDVNENGKRRTPDRTKENGFDREPLHSEHPSKRPCTISPGQRYSPNNGLSYQPNGLPHPTPPPPQHYRLDDMAIAHHYRDSYRHPSHRDLRDRNRPMGLEDLKKGGGSSSSHSRQQSPVNPDPVALDAHREFLHRPASGYVPEEIWKKAEEAVNEVKRQAMTELQKAVSEAERKAHDMITTERAKMERTVAEAKRQAAEDALAVINQQEDSSESCWNCGRKASETCSGCNTARYCGSFCQHKDWEKHHHICGQTLQAQQQGDTPAVSSSVTPNSGAGSPMDTPPAATPRSTTPGTPSTIETTPR
notes: AML1-ETO lacking amino acids 481 to 547 (the NHR2 domain); also called AML1-ETO ΔNHR2; not shown: Flag tag at the N-terminus
binding result [2]: binds

Now from value to binder:

binding result [3]: binds
B4: HA-AML1-ETO9a (other)
chain: MRIPVDASTSRRFTPPSTALSPGKMSEALPLGAPDAGAALAGKLRSGDRSMVEVLADHPGELVRTDSPNFLCSVLPTHWRCNKTLPIAFKVVALGDVPDGTLVTVMAGNDENYSAELRNATAAMKNQVARFNDLRFVGRSGRGKSFTLTITVFTNPPQVATYHRAIKITVDGPREPRNRTEKHSTMPDSPVDVKTQSRLTPPTMPPPPTTQGAPRTSSFTPTTLTNGTSHSPTALNGAPSPPNGFSNGPSSSSSSSLANQQLPPACGARQLSKLKRFLTTLQQFGNDISPEIGERVRTLVLGLVNSTLTIEEFHSKLQEATNFPLRPFVIPFLKANLPLLQRELLHCARLAKQNPAQYLAQHEQLLLDASTTSPVDSSELLLDVNENGKRRTPDRTKENGFDREPLHSEHPSKRPCTISPGQRYSPNNGLSYQPNGLPHPTPPPPQHYRLDDMAIAHHYRDSYRHPSHRDLRDRNRPMGLHGTRQEEMIDHRLTDREWAEEWKHLDHLLNCIMDMVEKTRRSLTVLRRCQEADREELNYWIRRYSDAEDLKKGGGSSSSHSRQQSPVNPDPVALD
notes: Alternatively spliced form of A-E with 575 amino acids, lacking NHR3 and NHR4; also called A-E9a; AE9a; not shown: HA tag (anti-HA antibody used for the IP)

binding result [2]: no binding
B5: Flag-AE-ΔNHR1 (aa245-436) (other)
chain: MRIPVDASTSRRFTPPSTALSPGKMSEALPLGAPDAGAALAGKLRSGDRSMVEVLADHPGELVRTDSPNFLCSVLPTHWRCNKTLPIAFKVVALGDVPDGTLVTVMAGNDENYSAELRNATAAMKNQVARFNDLRFVGRSGRGKSFTLTITVFTNPPQVATYHRAIKITVDGPREPRNRTEKHSTMPDSPVDVKTQSRLTPPTMPPPPTTQGAPRTSSFTPTTLTNGTSHSPTALNGAPSPPNGFSHRDLRDRNRPMGLHGTRQEEMIDHRLTDREWAEEWKHLDHLLNCIMDMVEKTRRSLTVLRRCQEADREELNYWIRRYSDAEDLKKGGGSSSSHSRQQSPVNPDPVALDAHREFLHRPASGYVPEEIWKKAEEAVNEVKRQAMTELQKAVSEAERKAHDMITTERAKMERTVAEAKRQAAEDALAVINQQEDSSESCWNCGRKASETCSGCNTARYCGSFCQHKDWEKHHHICGQTLQAQQQGDTPAVSSSVTPNSGAGSPMDTPPAATPRSTTPGTPSTIETTPR
notes: also called AML1-ETO ΔNHR1; not shown: Flag tag at the N-terminus

binding result [2]: no binding
B6: Flag-ETO-ΔNHR1 (other, human, UniProt Q06455 1-604, looked up)
chain: MISVKRNTWRALSLVIGDCRKKGNFEYCQDRTEKHSTMPDSPVDVKTQSRLTPPTMPPPPTTQGAPRTSSFTPTTLTNGTSHSPTALNGAPSPPNGLPHPTPPPPQHYRLDDMAIAHHYRDSYRHPSHRDLRDRNRPMGLHGTRQEEMIDHRLTDREWAEEWKHLDHLLNCIMDMVEKTRRSLTVLRRCQEADREELNYWIRRYSDAEDLKKGGGSSSSHSRQQSPVNPDPVALDAHREFLHRPASGYVPEEIWKKAEEAVNEVKRQAMTELQKAVSEAERKAHDMITTERAKMERTVAEAKRQAAEDALAVINQQEDSSESCWNCGRKASETCSGCNTARYCGSFCQHKDWEKHHHICGQTLQAQQQGDTPAVSSSVTPNSGAGSPMDTPPAATPRSTTPGTPSTIETTPR
notes: not shown: Flag tag

From patent US20140348840A1 (Memorial Sloan Kettering, published 2014)
